We go through five molecules from article PMC3323732 (Journal of Molecular Biology, 2011).

The data set “SEC” concerns the molecule itself. The data set can be described thus: SEC.
Data set [1] concerns the molecule itself. Briefly: thioflavin T fluorescence of fibril formation.
In data set [2] the target is T1, myocilin C-terminal olfactomedin domain (myoc-OLF), cleaved from MBP, wild type (human, UniProt Q99972 228-504).
T1 sequence (looked up): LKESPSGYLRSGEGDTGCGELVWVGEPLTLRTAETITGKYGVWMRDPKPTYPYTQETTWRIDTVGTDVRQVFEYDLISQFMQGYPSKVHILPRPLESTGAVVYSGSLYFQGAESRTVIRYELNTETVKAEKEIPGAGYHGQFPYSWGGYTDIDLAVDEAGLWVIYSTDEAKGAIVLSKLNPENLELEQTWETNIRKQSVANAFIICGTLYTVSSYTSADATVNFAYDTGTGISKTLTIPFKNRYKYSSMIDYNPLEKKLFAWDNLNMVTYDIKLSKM
Briefly: seeded fibril formation followed by thioflavin T fluorescence.

Changes are numbered by the printed parent chain. In names and notes the source's numbering stands.

B1: MBP-OLF(245-455) (domain or fragment, human, UniProt Q99972 245-455, looked up)
chain: CGELVWVGEPLTLRTAETITGKYGVWMRDPKPTYPYTQETTWRIDTVGTDVRQVFEYDLISQFMQGYPSKVHILPRPLESTGAVVYSGSLYFQGAESRTVIRYELNTETVKAEKEIPGAGYHGQFPYSWGGYTDIDLAVDEAGLWVIYSTDEAKGAIVLSKLNPENLELEQTWETNIRKQSVANAFIICGTLYTVSSYTSADATVNFAYDT
For B1, the binding result in “SEC” is “binds”.

B2: MBP-OLF(245-504) (domain or fragment, human, UniProt Q99972 245-504, looked up)
chain: CGELVWVGEPLTLRTAETITGKYGVWMRDPKPTYPYTQETTWRIDTVGTDVRQVFEYDLISQFMQGYPSKVHILPRPLESTGAVVYSGSLYFQGAESRTVIRYELNTETVKAEKEIPGAGYHGQFPYSWGGYTDIDLAVDEAGLWVIYSTDEAKGAIVLSKLNPENLELEQTWETNIRKQSVANAFIICGTLYTVSSYTSADATVNFAYDTGTGISKTLTIPFKNRYKYSSMIDYNPLEKKLFAWDNLNMVTYDIKLSKM
As for B2, in “SEC”, the binding result is “binds”.

B3: myoc-OLF(Y437H), cleaved from MBP (domain or fragment, human, UniProt Q99972 228-504, looked up)
chain: T1 sequence (looked up) with Y210H
Turning to B3, the binding result in data set [1] and in data set [2] was “binds” each time.

B4: MBP-OLF(Y437H) (domain or fragment, human, UniProt Q99972 228-504, looked up)
chain: T1 sequence (looked up) with Y210H
Consider B4, for which the binding result in the data set “SEC” is “binds”.

B5: MBP-OLF(P370L) (domain or fragment, human, UniProt Q99972 228-504, looked up)
chain: T1 sequence (looked up) with P143L
With B5, in the data set “SEC”, the binding result is on record as “binds”.
